One test concerns the target GFP-Polη (UniProt Q9Y253). The test is described as follows: co-IP.
The target in test [1] is GFP-mRev1 (not stated (label mRev1)) (UniProt Q920Q2). The test is described as follows: co-IP.

Our source for the PCNA-Ub:PCNA precipitation ratio values is paper PMC3753651.

For the substance “PCNA-Ub (C-terminal fusion of ubiquitin to PCNA-K164R) (from UniProt P12004 1-261; P0CG48 1-76)”, the PCNA-Ub:PCNA precipitation ratio worked out at 3.5 with GFP-Polη and 8.5 in test [1].
